# Publication PMC9917425 (2023)
# Target: laminin-111 (Mus musculus, UniProt P19137)
# Assay: solid-phase binding assay
row,Kd,Binder
1,1.9 nM,α-dystroglycan (α-DG) (protein) HWPSEPSEAVRDWKNQLEASMHSVLSDFQEAVPTVVGIPDGTAVVGRSFRVSIPTDLIASSGEIIKVSAAGKEALPSWLHWDPHSHILEGLPLDTDKGVHYISVSAARLGANGSHVPQTSSVFSIEVYPEDHNEPQSVRAASSDPGEVVPSACAADEPVTVLMVILDADLTKMTPKQRIDLLNRMQSFSEVELHNMKLVPVVNNRLFDMSAFMAGPGNAKKVVENGALLSWKLGCSLNQNSVPDIRGVETPAREGAMSAQLGYPVVGWHIANKKPTLPKRLRRQIHATPTPVTAIGPPTTAIQEPPSRIVPTPTSPAIAPPTETMAPPVRDPVPGKPTVTIRTRGAIIQTPTLGPIQPTRVSEAGTTVPGQIRPTLTIPGYVEPTAVITPPTTTTKKPRVSTPKPATPSTDSSTTTTRRPTKKPRTPRPVPRVTTKAPITRLETASPPTRIRTTTSGVPRGGEPNQRPELKNHIDRVDAWVGTYFEVKIPSDTFYDNEDTTTDKLKLTLKLREQQLVGEKSWVQFNSNSQLMYGLPDSSHVGKHEYFMHATDKGGLSAVDAFEIHVHKRPQGDKAPARFKARLAGDPAPVVNDIHKKIALVKKLAFAFGDRNCSSITLQNITRG
2,0.966 nM,"α-dystroglycan (α-DG) (protein, matriglycan O-glycosylation (full-length)) HWPSEPSEAVRDWKNQLEASMHSVLSDFQEAVPTVVGIPDGTAVVGRSFRVSIPTDLIASSGEIIKVSAAGKEALPSWLHWDPHSHILEGLPLDTDKGVHYISVSAARLGANGSHVPQTSSVFSIEVYPEDHNEPQSVRAASSDPGEVVPSACAADEPVTVLTVILDADLTKMTPKQRIDLLNRMQSFSEVELHNMKLVPVVNNRLFDMSAFMAGPGNAKKVVENGALLSWKLGCSLNQNSVPDIRGVETPAREGAMSAQLGYPVVGWHIANKKPTLPKRLRRQIHATPTPVTAIGPPTTAIQEPPSRIVPTPTSPAIAPPTETMAPPVRDPVPGKPTVTIRTRGAIIQTPTLGPIQPTRVSEAGTTVPGQIRPTLTIPGYVEPTAVITPPTTTTKKPRVSTPKPATPSTDSSTTTTRRPTKKPRTPRPVPRVTTKAPITRLETASPPTRIRTTTSGVPRGGEPNQRPELKNHIDRVDAWVGTYFEVKIPSDTFYDNEDTTTDKLKLTLKLREQQLVGEKSWVQFNSNSQLMYGLPDSSHVGKHEYFMHATDKGGLSAVDAFEIHVHKRPQGDKAPARFKARLAGDPAPVVNDIHKKIALVKKLAFAFGDRNCSSITLQNITRG"
3,2.32 nM,"α-dystroglycan lacking N-terminal domain (M-α-DGN KO) 317-653 (protein, short non-elongated matriglycan O-glycosylation) TPVTAIGPPTTAIQEPPSRIVPTPTSPAIAPPTETMAPPVRDPVPGKPTVTIRTRGAIIQTPTLGPIQPTRVSEAGTTVPGQIRPTLTIPGYVEPTAVITPPTTTTKKPRVSTPKPATPSTDSSTTTTRRPTKKPRTPRPVPRVTTKAPITRLETASPPTRIRTTTSGVPRGGEPNQRPELKNHIDRVDAWVGTYFEVKIPSDTFYDNEDTTTDKLKLTLKLREQQLVGEKSWVQFNSNSQLMYGLPDSSHVGKHEYFMHATDKGGLSAVDAFEIHVHKRPQGDKAPARFKARLAGDPAPVVNDIHKKIALVKKLAFAFGDRNCSSITLQNITRGSI"
